The data set can be described thus: soluble fraction after stress (log2 fold change); higher = more stays soluble; pooled small domains, quantitative proteomics. Particulars: stress: 75 degC.

Some results are limits rather than exact numbers.
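Further: 20 min heating vs room temperature control held 20 min.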

On to “HMPYNRRYLISNADGALYTVEENGLVKLEETNLTAELFETRGMQDIPDGKLLITLHDPTILYWHDSENLFP”, for which the “soluble fraction (log2)” value is -1.5.

For the sequence “HMPYSPTPGSAPARLIAHLQEHGDSVNRTAIAELLQVDRKNVHNYLARAVTHGLLLRHGGGAYSLP”, the “soluble fraction (log2)” value came to 0.0908. As for “HMQADEENPKYPVITDGVIQLEVLESIDKTEEWLVERLAKDGYNNVSEIFIAEYENGNLSIVT”, the figure is 0.0913. Turning to “HMQADPYTVLGVLRDVTDGELKREYRKLVREHHPDALIAQGVPQEFVDIANNKLAVINAAYERIAKQRGL”, the “soluble fraction (log2)” value was -0.154. The result for “HMQAGILTDTAAKNARIKKIDTERLEAELDQKRIVIVTGFQGVDRNQNITTLGRGGSDTSAVALAAAVSIT” reads 0.171; that for “HMQAKDVEIPNFVGKTLAEANADNKDNFNFVVESKYDASKELGVILEQEPAADSKLVKSGSQITLKV”, not below 1.04; that for “HMQALDNNDALEEIIKKVITENPSQVTEFRNGKDSLMNFLVGKVMAASGGKANPKTLPETIEKIIK”, 0.277. As for “HMQAMDYEGFKKEILKMSDIDLSLYKEKQMKRRIDSLIRKNGYEHYEDYVQALKQDSGLYNEFINYLTI”, the figure is 0.571; as for “HMQANLPFSELLADVDRGLISDVTIKGDQVSGHYTDGRTFNTFIPPEADLVRRLTEKNVRIAAVPD”, -0.113; as for “HMQAPAFDYSKVQEGVTVNHKIFGDGTVSWIDKARKYIRVQFSVGEKMFTMETAFVQGFLSL”, -1.19. As for “HMQAPVDPIVLGKMGSSYGIRGWLRVFSSTEDAESIFDYQPWFIQKAGQWQQVQLESWKHHNQDMIIKLN”, the figure is 0.2; as for “HMQARLPFSFAKRHGVILLAATGEGQSDVIYKSGFDIGALAEVRRFVAGEIALKEVDGPSFDRQLTLTYQN”, -2.

As for “HMQARSQQTIQTLFKAAAQILDKEGEAGLSTNKVAAAAGFSIGTLYQYFPSKEVLIQAMAAR”, the “soluble fraction (log2)” value is 0.219.

For the sequence “HMQASISVDEAKSIALNYAKFTADQVVYTKSELDYDDGRAEYEIEFYAGGKEYSFTIDAVSGTVLEMEI”, the “soluble fraction (log2)” value is -2.26. The result for “HMQATDEEIENFTSSAITAYKLTKEEGYIISMRDMKPIMEIVKTEYPMANGKVVSKVMNNYING” reads 0.0264; that for “HMQDELSSSVIEEAVVVLLLRAANIDGKKDEQEIEAIKRLIIQQFNYDEEKADILITSASEK”, 0.0178; that for “HMQDGTILPGQKTAIRSLATSGGYDSQDLDTYLATTYGKSIDGLTRTEGADVIKAFQAGTVAK”, 0.436. “HMQDLEIKINLGMTYYEVREAIGSPDIIDKINQYGRDFQMWTYYIDDKTKRYYFEDHLLTKI”: the “soluble fraction (log2)” value is -2.84. The result for “HMQDLPPIHLSRGMTDYTLVRSRRRTLSMELKRDGTVVVHAPLRLGVEKIDAFVAAHEAWLARARTRQAER” reads -2.59.

In the case of “HMQDNPELVARIEKAAARGTSSMSDWERSFMGSLLDSAKKWGRLTAKQHEVFQRIEKKTDPAHQAAVS”, the “soluble fraction (log2)” value is 0.111. As for “HMQDPRITRTRGLILQAFDALLVEKGFHALSVQAIAGRAGINRATFYAHFADKYALLDTSIQE”, the figure is 0.227. As for “HMQDREKNIAEGRDIIEHEFMRLGISLSRYDLDGLASKLNVKAGDDVLAGVGAGDIRVSQIISQLG”, the “soluble fraction (log2)” value was -0.0551. The result for “HMQDTVKNVFGAFTIFTDKPFAIGDTINVNGLEGTVVDVGMRSTQILGYDRRITSYPNYKITDSSIVNISS” reads -0.0554. In the case of “HMQDVVFTVDKDQTGAEIGDMLYEKGIISSPTTFRLALRLTGSMDKLQQGYYQIPQNASLRQVIALLQKG”, the “soluble fraction (log2)” value is -0.35. As for “HMQDYYTQSDFARYLEDKGIHFPQNKIAVYRKRGKFPKEDLVVAGTPYWSKYTVESFAKHLLEQQN”, the figure is 0.254. As for “HMQEAATSLNAKILAKLRENNGTLAVSDKSDPALISSLFGVSKGNFKKAIGALYKNGQIVIHADRIEL”, the figure is -0.813; as for “HMQEDQKTSIFDIEGVEKGVASVLSSIKVEIVSDLLEADMDDILKSGKISEDDLDGVYEAVQNFVER”, 0.41. “HMQELNDQQRLAILNEWNNRATNPPSLLELVRVAFPDAEGADGRSWHGKKVKEFLSTRQIKARAS”: the “soluble fraction (log2)” value was found to be 0.0119.

Take “HMQENFYMILESEERRVLDVLVADQPESVATFLKLVSPFPNYKIILEHINEKALDFYEETVI”: the “soluble fraction (log2)” value was -0.35. As for “HMQESTILPAQKSAISSLATSAGFSSENLKRYLLQNYGVDLKDLTRSQGAEVIKAFQSGNVSKP”, the figure is 0.281; as for “HMQETPAMLAMKELPTEDEQRIYMMLQEDYDSVLLVKTIRNAFSQNPQLTRQQLLPIILTWLMT”, -1.33; as for “HMQGATVYIKSDDIGKTTNEQGSFNFDKLKKNRYTLEISFIGYETKNLQAYTDRENIVQLNRKS”, -0.307.

Turning to “HMQGEVPYSQFLTEVDRGDVQSVVIEGNNISGFYKNSSTAFTVVAPDDPKLVERLMEQGVEVKARPV”, the “soluble fraction (log2)” value came out at 0.112. On to “HMQGEVVTNRSVIDMSRAGLSADIIRAKILRSDTNFDVTAKALIELKESGVPDDIIALMLERADS”, for which the “soluble fraction (log2)” value was determined as 0.00604. On to “HMQGIPVTVTAERANLRSGPGTSFDKLGQVVQGDVLTLLEVQNDWYKVKTAEGKTAFVAAYLVNSP”, for which the “soluble fraction (log2)” value was -0.269. As for “HMQGQADFTQGIANFTQYPVGSRITVFTLEGRRVAVVEIGKDGTAQLDMRNKPAGVYIVNTGKQSFKWLK”, the figure is -2.65; as for “HMQGRIYLNPDLAEKLRAQYAAYPHWSYLLHTENLGALVRKTESLGPMPSYSTILRYMHANDMRKRNKP”, -1.78. The result for “HMQGVNLTETEKNFIAQVLSPLLKQGQSLYQIRTNHPEIKLSVKTLYTYIESGIFKESGINNFSLRRQ” reads -0.122; that for “HMQILNVFSKHGIKPISPQIGDKFDPQLHEAMFEAPVPGTKAGDIIEVSSEGFMLYDRLLRPAHVGVSSN”, -0.0306; that for “HMQILPAFLPENPELRARLANHSLEELTEILKQYKTLHNSTDVDTVKRAIRAIEIEEYYAVHPV”, -0.731.

Consider “HMQINLKQSSDEELVKIITVQVHHYEPHTVKAAEAEIERRGIDKMRMAHLVKKVAQENTAVQEIQD”, for which the “soluble fraction (log2)” value amounted to 0.297.

On to “HMQISDDSELIKIVDNILANSQKQIDDYHNGKTNLFGFFVGQVMKETKGKANPVKVNEILKDKL”, for which the “soluble fraction (log2)” value was -0.00828. As for “HMQISDSSLIAKTVATVILENPEAVSDYLGGKHSVVRFMVGQIMKKTQGKANPKMATEMLETALNDL”, the figure is -1.88.

Turning to “HMQISDTTELSTLITKVLSEQSDALVDFKNPKKQKQVIGYLTGQVLRASQGKANPGLVRSLLEEQLSALDS”, the “soluble fraction (log2)” value came to 0.0724.

For “HMQISMQNIASVKIDDLSDEQIQEFSTKYTAAGYSFPDVENVAKQKGMPSSEIEKLRQRVLTAQNTQEK”, the “soluble fraction (log2)” value was 0.283. As to “HMQISSSEVLEKVVDEILSANPKSIEDYKNGKLQAAGFLMGQVMKATKGQANPAVAKELIEAKLKD”, the “soluble fraction (log2)” value came out at 0.461.

“HMQISYDVPNLIGKSYEEVMTDPSILGEHFTVVLGETKTDEDTDAGVILHQDPAADSKVQDEVTPITVTVS”: the “soluble fraction (log2)” value is 0.374. As for “HMQITDTEAIATTLDEIIAANPKEWERLKAGQEQLVKFFVGQVMRVTKGRANPQVVNDLLKERL”, the figure is -0.346; as for “HMQITNEGQIKLVISEVLNENQEQKKQYLSGKEQVLGYLIGKVMQKTKGKANPKLVNDLMIKELS”, -0.135; as for “HMQITSTDEIEKMIDELIAANPEQTKQYQNGNHKVAGWFVGQMMKASKGKANPQMVNNLLQKKL”, 0.278.

With “HMQITTVSPKNYAEAELIGQRFREGNPVVMDLSKLDSDLGQRLVDFASGLVFALNGTVERIAKKVFLLSP”, the “soluble fraction (log2)” value is -1.37.

For the sequence “HMQIVHKHLQLQPDQGALRAALYSHKAVVAEQVNEQGAINLEIKLAESDFLRLLKSSGLKLQDLVSLS”, the “soluble fraction (log2)” value is -1.35. The result for “HMQKAQEYILVDIKGEVQTPGVYKLPVNSRVIDAIEASGGLTKKAVTTYINLSKTLKDENVIIINKKSEL” reads -0.59. As for “HMQKITPDNWTYIRSLIRQKWSPDQIDQWLKKHPDVGFTVSRETIYQYVKEDRQKDGDLYLSLRRAGKSY”, the figure is -2.18. The result for “HMQKLKINKYKDPKGEIRYYIASTIRNGNKSSTHNLLSLGKHSDLLKEHSDVEAYLKERLNEAMESGI” reads -0.0843; that for “HMQKPDIEVDFAEGDMVVVTGGAWKDTAGVITGINMQKQTVTINVELFGRETPVEISFTEIKKA”, -0.117.

Take “HMQKVPDAFKAEQVQTLITRLGVSRAELARTLDVSLSTVNKWASGAVEPKGSALVLLKVLWMHGFKAL”: the “soluble fraction (log2)” value was -2.85.

Regarding “HMQLDDDQKEELILKLIDSLDTTKKGAPLTELAREAAKSNIGESELEEITTSLLDKGLVYEPTIGKMKR”, the “soluble fraction (log2)” value was 0.394. Consider “HMQLDLNENEKIIFEILQNNKTMQLSNLKTQTELSNKGWDKAIKSLTKQGLAKVSKIDNELIVEFL”, for which the “soluble fraction (log2)” value was -0.466. The result for “HMQLKFTDLRKEILRMIWEGHGPQKAYDLLNKLQQTNPSAKPATVYRALDFLIGNGFIHKVASLNAFVG” reads -0.59; that for “HMQLKKDTILSYIEEKLIDSYNSNKGFTTQEISVALNMQRTNVSAILNNLVKENKLVKTKGKPVRYFLSG”, -0.636. The result for “HMQLTPAQHAILAHALEHSDGKIVWFPDNIKGGARKKVLDGLLNRALITTDGTDWFVAAEGYDAMGR” reads -0.386; that for “HMQLTVAVLIKNISKGQVISQGFLGFEARPERQIRGAYTNISEVLGRKAKSNIAVGTILKARHLDT”, -2.87; that for “HMQNAMQKELIDAFQKAYPDLDITKIELVYGTYYEVEAMNSTTEFTYRYDQNSKTFILAEQDNADP”, -0.203. The result for “HMQNELAEARSQLAERKNIDQAKLILMKKRNISEPEAYKLLRSHAMQTNRRVAEVAESIITAESLLG” reads -0.0692. On to “HMQNGNLVDVYLNWRGKYYAIKMFFPNSKMPRRSDVQDQIVKVYPDARVQSFQVSKYVPGQPFL”, for which the “soluble fraction (log2)” value was -2.62. With “HMQNLSELAYVNLRDALMQGQMKPGEELPLRPISRSFGISATPMREALLRLVTESALEMDSRGRISVP”, the “soluble fraction (log2)” value was -0.347. The result for “HMQNPYDTLGVSRDSTDAEIKKAYRKLAMEHHPDKGGDSQRFAEINNAYDNIKDMSSRQNFENDPSNFQ” reads 0.266; that for “HMQNVFARKNLTSVSVDKLGEEEILLFKQSFESKNLTSSEALRDLSKKGMSEAELRKLKVRLTQL”, -0.287. As for “HMQNWFADPKFEMFEDYGDAQSFYDTETKNIYVVMAEYGQKGSNTIQEITPDSEEYIPNYEKYKEYMENK”, the figure is 0.214.

For the origin of these results see the domain aggregation screens of Martell et al. (2025).
